Measured values reported in patent US11732043.
Where two headings read alike, the source gives them in different places.

Experiments:
[1] = target: human LAG-3 (huLAG-3), full length, expressed on the cell surface (human) (UniProt P18627)
[2] = target: human LAG-3 (huLAG-3), full length, expressed on the cell surface (human) (UniProt P18627); remark: listed apart in the source
[3] = target: human LAG-3 (huLAG-3), full length, expressed on the cell surface (human) (UniProt P18627); assay: method of determination not stated; legend of the FACS binding figure (293FF-LAG-3 cells, activated human T-cells)
[4] = target: human LAG-3 (huLAG-3), full length, expressed on the cell surface (human) (UniProt P18627); assay: FACS titration on activated human T cells, detection with PE-labelled anti-IgG F(ab')2 [right panel Activated T cells]

Chain of human LAG-3 (huLAG-3), full length, expressed on the cell surface (human) (P18627 23-525): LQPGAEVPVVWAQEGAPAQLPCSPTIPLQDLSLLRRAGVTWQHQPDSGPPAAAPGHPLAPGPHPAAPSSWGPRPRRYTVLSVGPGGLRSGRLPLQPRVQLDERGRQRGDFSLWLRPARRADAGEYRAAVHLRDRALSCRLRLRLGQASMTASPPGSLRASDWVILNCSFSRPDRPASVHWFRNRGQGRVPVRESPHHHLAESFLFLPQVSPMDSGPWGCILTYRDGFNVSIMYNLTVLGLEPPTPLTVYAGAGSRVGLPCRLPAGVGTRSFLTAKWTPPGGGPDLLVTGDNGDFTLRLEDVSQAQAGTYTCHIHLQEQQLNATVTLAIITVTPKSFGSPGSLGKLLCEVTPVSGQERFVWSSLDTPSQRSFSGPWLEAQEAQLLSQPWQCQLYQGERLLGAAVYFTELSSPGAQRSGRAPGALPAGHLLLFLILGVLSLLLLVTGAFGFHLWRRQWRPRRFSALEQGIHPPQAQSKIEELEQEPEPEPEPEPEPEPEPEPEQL

Substance: PG7431, anti-LAG-3 antibody 25F7 produced in a human IgG1 format
- EC50 (read off the curve) [1]: 0.1 µg/mL
- EC50 (read off the curve) [2]: 0.1 µg/mL
- Kd [3]: 0.2 nM
- EC50 (read off the curve) [4]: 0.04 µg/mL
